T1: cynomolgus uPAR (recombinant) (cynomolgus monkey, UniProt Q9GK78 23-303, limits assumed)
T1 construct: also called cyno uPAR; AF647-cyno uPAR
T1 sequence (looked up): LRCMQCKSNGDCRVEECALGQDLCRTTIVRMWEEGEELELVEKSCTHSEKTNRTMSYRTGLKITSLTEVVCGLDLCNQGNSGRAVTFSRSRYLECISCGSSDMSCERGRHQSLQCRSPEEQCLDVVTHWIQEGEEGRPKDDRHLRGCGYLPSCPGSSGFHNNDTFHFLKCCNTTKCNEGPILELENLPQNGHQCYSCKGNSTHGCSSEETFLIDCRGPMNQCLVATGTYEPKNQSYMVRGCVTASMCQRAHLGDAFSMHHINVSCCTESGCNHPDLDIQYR


Assays:
[1] = target: T2, human uPAR displayed on the surface of MDA-MB-231 cells (human, UniProt Q03405 23-305); test: flow cytometry on MDA-MB-231 cells
T2 construct: whole, on cells; also called cell-surface uPAR; cellular uPAR
T2 sequence (Q03405 23-305): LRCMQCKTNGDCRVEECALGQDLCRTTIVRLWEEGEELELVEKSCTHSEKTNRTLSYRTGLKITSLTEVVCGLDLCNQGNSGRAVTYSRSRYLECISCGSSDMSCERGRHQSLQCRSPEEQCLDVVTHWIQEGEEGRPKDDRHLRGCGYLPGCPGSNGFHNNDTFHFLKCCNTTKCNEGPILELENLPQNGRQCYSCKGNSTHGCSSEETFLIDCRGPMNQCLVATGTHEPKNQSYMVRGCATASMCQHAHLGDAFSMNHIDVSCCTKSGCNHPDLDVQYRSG

[2] = target: T1, cynomolgus uPAR (recombinant); test: BLI (Octet HTX)
Description: (§1) Kinetic constant ranges for Octet HTX were between 1 mM to 10 pM.

[3] = target: T3, human uPAR (recombinant protein used in ELISA and BLI) (human, UniProt Q03405 23-305, limits assumed); test: BLI (Octet HTX)
T3 construct: Whole entry named; also called biotinylated human uPAR
T3 sequence (Q03405 23-305 limits assumed): as the sequence (Q03405 23-305) above
Description: as §1

Binder | EC50 [1] [µg/mL] | Kd [2] [nM] | Kd [3] [nM]
11857 HC1 + LC1 (humanized) (antibody, V domains shown, detected with anti-human Fc antibody) VH: EVQLVQSGAEVKKPGATVKISCKVSGYTFTDYYMNWVQQAPGKSLEWMGNINPNNGGTDYNQKFQGRVTITADKSTSTAYMELSSLRSEDTAVYYCARSYGSRFPYWGLGTLVTVSS VL: DIQMTQSPSSLSASVGDRVTITCRASQDITNYLSWYQQKPGGTVKLLLYYTAVLQSGFPSRFSGSGSGADYTLTISSLQPEDFATYYCQQGHTLPWTFGGGTKVEIK | 0.695 | 69.7 | 127
11857 HC1 + LC3 (humanized) (antibody, V domains shown, detected with anti-human Fc antibody) VH: EVQLVQSGAEVKKPGATVKISCKVSGYTFTDYYMNWVQQAPGKSLEWMGNINPNNGGTDYNQKFQGRVTITADKSTSTAYMELSSLRSEDTAVYYCARSYGSRFPYWGLGTLVTVSS VL: DIQMTQSPSSLSASVGDRVTITCRASQDITNYLSWFQQKPGGTVKLLIYYTAVLQSGFPSRFSGSGSGADFTLTISSLQPEDFATYYCQQGHTLPWTFGGGTKVEIK | 1.21 |  | 
11857 HC2 + LC1 (humanized) (antibody, V domains shown, detected with anti-human Fc antibody) VH: EVQLVQSGAEVKKPGASVKVSCKASGYTFTDYYMNWVRQAPGKSLEWMGNINPNNGGTDYSQKFQGRVTITVDTSASTAYMELSSLRSEDTAVYYCARSYGSRFPYWGLGTLVTVSS VL: DIQMTQSPSSLSASVGDRVTITCRASQDITNYLSWYQQKPGGTVKLLLYYTAVLQSGFPSRFSGSGSGADYTLTISSLQPEDFATYYCQQGHTLPWTFGGGTKVEIK | 0.432 | 307 | 125
11857 HC1 + LC2 (humanized) (antibody, V domains shown, detected with anti-human Fc antibody) VH: EVQLVQSGAEVKKPGATVKISCKVSGYTFTDYYMNWVQQAPGKSLEWMGNINPNNGGTDYNQKFQGRVTITADKSTSTAYMELSSLRSEDTAVYYCARSYGSRFPYWGLGTLVTVSS VL: DIQMTQSPSSLSASVGDRVTITCRASQDITNYLSWYQQKPGGTVKLLIFYTAVLQSGFPSRFSGSGSGADFTLTISSLQPEDVATYYCQQGHTLPWTFGGGTKVEIK | 0.223 | 32.4 | 53.4
11857 HC2 + LC2 (humanized) (antibody, V domains shown, detected with anti-human Fc antibody) VH: EVQLVQSGAEVKKPGASVKVSCKASGYTFTDYYMNWVRQAPGKSLEWMGNINPNNGGTDYSQKFQGRVTITVDTSASTAYMELSSLRSEDTAVYYCARSYGSRFPYWGLGTLVTVSS VL: DIQMTQSPSSLSASVGDRVTITCRASQDITNYLSWYQQKPGGTVKLLIFYTAVLQSGFPSRFSGSGSGADFTLTISSLQPEDVATYYCQQGHTLPWTFGGGTKVEIK | 0.212 | 59.5 | 45.7
11857 HC3 + LC1 (humanized) (antibody, V domains shown, detected with anti-human Fc antibody) VH: EVQLVQSGAEVKKPGASVKVSCKASGYTFTDYYMNWVRQAPGKSLEWMGNINPNNGGTDYNQKFQGRVTLTVDTSISTAYMELSRLRSDDTVVYYCARSYGSRFPYWGLGTLVTVSS VL: DIQMTQSPSSLSASVGDRVTITCRASQDITNYLSWYQQKPGGTVKLLLYYTAVLQSGFPSRFSGSGSGADYTLTISSLQPEDFATYYCQQGHTLPWTFGGGTKVEIK | 0.304 | 83.9 | 147
11857 HC3 + LC2 (humanized) (antibody, V domains shown) VH: EVQLVQSGAEVKKPGASVKVSCKASGYTFTDYYMNWVRQAPGKSLEWMGNINPNNGGTDYNQKFQGRVTLTVDTSISTAYMELSRLRSDDTVVYYCARSYGSRFPYWGLGTLVTVSS VL: DIQMTQSPSSLSASVGDRVTITCRASQDITNYLSWYQQKPGGTVKLLIFYTAVLQSGFPSRFSGSGSGADFTLTISSLQPEDVATYYCQQGHTLPWTFGGGTKVEIK |  | 59.6 | 75.6
3159 HC1 + LC3 (humanized) (antibody, V domains shown, detected with anti-human Fc antibody) VH: QVTLRESGPALVKPTQTLTLTCTLSGFSLSTSGMGVSWIRQPPGKALEWLAHIYWDDDKRYSTSLKTRLTISKDASKDQVVLTMTNMDTVDTATYYCGRRVRNYFSGTSYWYFDVWGTGTLVTVSS VL: DIVMTQSPLSLPVTPGEPASISCRSSQNILHRTGNTYLDWYLQKPGQSPQLLIYKVSNRFSGVPDRFSGSGSGTDFTLKISRVEAEDVGVYYCFQGSYVPFTFGQGTKLEIK | 0.27 | 162 | 5.58
3159 HC1 + LC1 (humanized) (antibody, V domains shown, detected with anti-human Fc antibody) VH: QVTLRESGPALVKPTQTLTLTCTLSGFSLSTSGMGVSWIRQPPGKALEWLAHIYWDDDKRYSTSLKTRLTISKDASKDQVVLTMTNMDTVDTATYYCGRRVRNYFSGTSYWYFDVWGTGTLVTVSS VL: DIVMTQTPLSLSVTPGQPASISCKSSQNILHRTGNTYLEWYLQKPGQPPQLLIYKVSNRFSGVPDRFSGSGSGTDFTLKISRVEAEDVGVYYCFQGSYVPFTFGQGTKLEIK | 0.187 | 556 | 6.79
3159 HC1 + LC2 (humanized) (antibody, V domains shown, detected with anti-human Fc antibody) VH: QVTLRESGPALVKPTQTLTLTCTLSGFSLSTSGMGVSWIRQPPGKALEWLAHIYWDDDKRYSTSLKTRLTISKDASKDQVVLTMTNMDTVDTATYYCGRRVRNYFSGTSYWYFDVWGTGTLVTVSS VL: DVVMTQSPLSLPVTLGQPASISCRSSQNILHRTGNTYLEWFQQRPGQSPRLLIYKVSNRFSGVPDRFSGSGSGTDFTLKISRVEAEDVGVYYCFQGSYVPFTFGQGTKLEIK | 0.518 | 5870 | < 0.01
3159 HC2 + LC3 (humanized) (antibody, V domains shown, detected with anti-human Fc antibody) VH: QVTLKESGPVLVKPTETLTLTCTVSGFSLSTSGMGVSWIRQPPGKGLEWLAHIYWDDDKRYSPSLKSRLTISKDASKDQVVLTMTNMDTVDTATYYCGRRVRNYFSGTSYWYFDVWGTGTLVTVSS VL: DIVMTQSPLSLPVTPGEPASISCRSSQNILHRTGNTYLDWYLQKPGQSPQLLIYKVSNRFSGVPDRFSGSGSGTDFTLKISRVEAEDVGVYYCFQGSYVPFTFGQGTKLEIK | 0.205 | 255 | < 0.01
3159 HC3 + LC3 (humanized) (antibody, V domains shown, detected with anti-human Fc antibody) VH: QITLKESGPTLVKPTQTLTLTCTLSGFSLSTSGMGVSWIRQPPGKALEWLAHIYWDDDKRYNPSLKSRLTITKDASKDQVVLTMTNMDTVDTATYYCGRRVRNYFSGTSYWYFDVWGTGTLVTVSS VL: DIVMTQSPLSLPVTPGEPASISCRSSQNILHRTGNTYLDWYLQKPGQSPQLLIYKVSNRFSGVPDRFSGSGSGTDFTLKISRVEAEDVGVYYCFQGSYVPFTFGQGTKLEIK | 0.185 | 58.5 | 7.39
3159 HC2 + LC1 (humanized) (antibody, V domains shown, detected with anti-human Fc antibody) VH: QVTLKESGPVLVKPTETLTLTCTVSGFSLSTSGMGVSWIRQPPGKGLEWLAHIYWDDDKRYSPSLKSRLTISKDASKDQVVLTMTNMDTVDTATYYCGRRVRNYFSGTSYWYFDVWGTGTLVTVSS VL: DIVMTQTPLSLSVTPGQPASISCKSSQNILHRTGNTYLEWYLQKPGQPPQLLIYKVSNRFSGVPDRFSGSGSGTDFTLKISRVEAEDVGVYYCFQGSYVPFTFGQGTKLEIK | 0.379 | 41.1 | < 0.01
3159 HC2 + LC2 (humanized) (antibody, V domains shown, detected with anti-human Fc antibody) VH: QVTLKESGPVLVKPTETLTLTCTVSGFSLSTSGMGVSWIRQPPGKGLEWLAHIYWDDDKRYSPSLKSRLTISKDASKDQVVLTMTNMDTVDTATYYCGRRVRNYFSGTSYWYFDVWGTGTLVTVSS VL: DVVMTQSPLSLPVTLGQPASISCRSSQNILHRTGNTYLEWFQQRPGQSPRLLIYKVSNRFSGVPDRFSGSGSGTDFTLKISRVEAEDVGVYYCFQGSYVPFTFGQGTKLEIK | 0.32 | 404 | < 0.01
3159 HC3 + LC1 (humanized) (antibody, V domains shown, detected with anti-human Fc antibody) VH: QITLKESGPTLVKPTQTLTLTCTLSGFSLSTSGMGVSWIRQPPGKALEWLAHIYWDDDKRYNPSLKSRLTITKDASKDQVVLTMTNMDTVDTATYYCGRRVRNYFSGTSYWYFDVWGTGTLVTVSS VL: DIVMTQTPLSLSVTPGQPASISCKSSQNILHRTGNTYLEWYLQKPGQPPQLLIYKVSNRFSGVPDRFSGSGSGTDFTLKISRVEAEDVGVYYCFQGSYVPFTFGQGTKLEIK | 0.488 | 202 | < 0.01
3159 HC3 + LC2 (humanized) (antibody, V domains shown, detected with anti-human Fc antibody) VH: QITLKESGPTLVKPTQTLTLTCTLSGFSLSTSGMGVSWIRQPPGKALEWLAHIYWDDDKRYNPSLKSRLTITKDASKDQVVLTMTNMDTVDTATYYCGRRVRNYFSGTSYWYFDVWGTGTLVTVSS VL: DVVMTQSPLSLPVTLGQPASISCRSSQNILHRTGNTYLEWFQQRPGQSPRLLIYKVSNRFSGVPDRFSGSGSGTDFTLKISRVEAEDVGVYYCFQGSYVPFTFGQGTKLEIK | 0.214 | 2240 | 4.66
